Measured values as given in PMC8880779 (International Journal of Molecular Sciences, 2022).

Experiments:
[1] = parameters: method as in PMID 15890345, PMID 18686032, PMID 26890761, PMID 34829555; conditions: cited from earlier work
(Ca^2+)4-CaM = conditions: read-out: dissociation constant of the Aβ:(Ca^2+)4-CaM complex; cited from earlier work
Excerpt: These neurons are in the brain areas that are highly prone to neurodegeneration in AD. […] Considering their spatial organization in the CaM structure, we included a couple of additional hydrophobic amino acid residues as spacing groups.

calmodulin (CaM) = biological target: T1, calmodulin (CaM) (Bos taurus, UniProt P62157); assay: Kinetics of Aβ(1–42) HiLyte-Fluor555 complex formation with CaM (fluorescence increase); format: binding, human
T1 construct: Purified bovine brain CaM; purchased Sigma-Aldrich (Madrid, Spain); host or cells: bovine brain

[2] = test system: CaM in cerebellar granule neurons in culture; conditions: 2 h incubation with 2 μM Aβ(1–42) oligomers; cited from earlier work
Excerpt: These neurons are in the brain areas that are highly prone to neurodegeneration in AD. […] Therefore, CaM has a high capacity to buffer the intracellular concentrations of these highly neurotoxic Aβ peptides ...

[3] = Aggregation state of Aβ(1–42) stock solutions (photoinduced cross-linking of unmodified proteins); format: physicochemical; conditions: 2 μM stock solutions

Y0, maximum fluorescence increase in the absence of the peptide (calmodulin (CaM); 10 nM Aβ(1–42) HiLyte-Fluor555, 5 nM CaM, 1000 s after addition, hyperbolic fit R^2 = 0.966, triplicate) [%]	slope of linear least-squares fit of first-order plot (calmodulin (CaM); fit y = 9.845 − 0.00396 x (R^2 = 0.922), 10 nM Aβ(1–42) HiLyte-Fluor555, 5 nM CaM, sign of slope in the equation negative)	stoichiometry of complex (calmodulin (CaM); 10 nM CaM, 10 nM Aβ(1–42))	increase of rate constant (calmodulin (CaM); 10 nM vs 5 nM CaM, 10 nM Aβ(1–42))	rate constant of the kinetic process (calmodulin (CaM); 1:1 molar ratio, 10 nM CaM and 10 nM Aβ(1–42))	Substance	neurotoxicity [1]	Kd ((Ca^2+)4-CaM) [nM]	maximum fluorescence change vs CaM concentration (calmodulin (CaM); 10 nM Aβ(1–42) HiLyte-Fluor555, CaM 2.5, 5 and 10 nM)	binding of internalized Aβ(1–42) by CaM [2]	concentration of monomers [3]	predominant aggregation state ([3]; 1% NH4OH diluted with phosphate-buffered saline)
–	–	–	–	–	Aβ(25–35): highly neurotoxic peptides derived from Aβ(1–42), like Aβ(25–35) (GSNKGAIIGLM; Amyloid-beta protein 42; UniProt P05067 696-706, looked up, fragment)	strongly neurotoxic	~1	–	–	–	–
22	0.00396	–	–	–	Aβ(1–42) HiLyte^TM-Fluor555: Human Aβ(1–42)-HiLyte™-Fluor555 obtained from AnaSpec	–	–	the maximum fluorescence change was achieved when CaM concentration increased from 2.5 to 5 nM, and it is not significantly different between 5 and 10 nM of CaM	–	–	–
–	–	Aβ(1–42)2:CaM2 complexes	about 4 fold	(18 ± 4)·10^−3 s^−1	Aβ(1–42): unlabeled Aβ(1–42) synthesized and supplied by StabVida and GenicBio Limited	–	~1	–	CaM binds most of the Aβ(1–42) internalized in cerebellar granule neurons	undetectable concentration of Aβ(1–42) monomers	Dimers are the predominant aggregation state
